Article PMC10524599, “Sensory deficit screen identifies nsf mutation that differentially affects SNARE recycling and quality control” (Cell reports, 2023)

Target: the molecule itself
Experiment: SEC; NSF alone, reassembled to the hexamer by a final SEC run with buffer containing 1 mM ATP

B1: I209N NSF (N-ethylmaleimide-sensitive factor, C. griseus ortholog with the I209N mutation) (enzyme)
chain: MAGRSMQAARCPTDELSLSNCAVVSEKDYQSGQHVIVRTSPNHKYIFTLRTHPSVVPGSVAFSLPQRKWAGLSIGQEIEVALYSFDKAKQCIGTMTIEIDFLQKKNIDSNPYDTDKMAAEFIQQFNNQAFSVGQQLVFSFNDKLFGLLVKDIEAMDPSILKGEPASGKRQKIEVGLVVGNSQVAFEKAENSSLNLIGKAKTKENRQSINNPDWNFEKMGIGGLDKEFSDIFRRAFASRVFPPEIVEQMGCKHVKGILLYGPPGCGKTLLARQIGKMLNAREPKVVNGPEILNKYVGESEANIRKLFADAEEEQRRLGANSGLHIIIFDEIDAICKQRGSMAGSTGVHDTVVNQLLSKIDGVEQLNNILVIGMTNRPDLIDEALLRPGRLEVKMEIGLPDEKGRLQILHIHTARMRGHQLLSADVDIKELAVETKNFSGAELEGLVRAAQSTAMNRHIKASTKVEVDMEKAESLQVTRGDFLASLENDIKPAFGTNQEDYASYIMNGIIKWGDPVTRVLDDGELLVQQTKNSDRTPLVSVLLEGPPHSGKTALAAKIAEESNFPFIKICSPDKMIGFSETAKCQAMKKIFDDAYKSQLSCVVVDDIERLLDYVPIGPRFSNLVLQALLVLLKKAPPQGRKLLIIGTTSRKDVLQEMEMLNAFSTTIHVPNIATGEQLLEALELLGNFKDKERTTIAQQVKGKKVWIGIKKLLMLIEMSLQMDPEYRVRKFLALLREEGASPLDFD
notes: legend gives 82.8 kDa monomeric, 496.8 kDa hexameric; also called NSF I209N; I209N NSF protein; source: E. coli BL21(DE3)-RIL, purified (Nickel-NTA, SEC; monomerized without ATP, reassembled by SEC with 1 mM ATP)
- stoichiometry N: 6
